Reference: PMC9929924, “Phosphorylation of the receptor protein Pex5p modulates import of proteins into peroxisomes” (Biological Chemistry, 2022)
Ends that are not written are not given here. * marks the point of attachment. FITC = O=C1OC2(c3ccc(O)cc3Oc3cc(O)ccc32)c2ccc(NC(=S)*)cc21

Columns and labels:
Pex5p^2D cells = assay: Fluorescence microscopy, peroxisomal import of GFP-tagged proteins in Pex5p^2D-expressing cells; assay type: cell-based, S. cerevisiae; set-up: key to import phenotype category: showed a reduced peroxisomal import and constitute category 1; category 2 characterized by no peroxisomal import; without a noticeable effect on import in Pex5p^2D cells (category 3); details: GFP-tagged protein, Pex5p^2D-expressing cells; Pex3p-mCherry marker; SD medium, 2% glucose; assessed manually
Excerpt: Query strains were constructed on the basis of an automated mating compatible strain. The query strains contained a peroxisomal marker (Pex3p-mCherry::HIS), a deletion of PEX5 (pex5Δ::NAT) and a plasmid expressing WT or mutant PEX5 (PEX5^WT, PEX5^2D or PEX5^2A). Using an automated mating method ([Cohen and Schuldiner 2011]; [Tong and Boone 2006]), the query strains were crossed with a NOP1pr-N′-GFP-peroxi library ([Dahan et al. 2017]). The NOP1pr-N′-GFP-peroxisomal library is a collection of ∼90 strains containing all the known peroxisomal proteins together with potential peroxisomal proteins and controls, genomically tagged with GFP at their N-terminus and expressed under the generic constitutive SpNOP1 promoter. To perform the manipulations in high-density format we used a RoToR bench top colony arrayer (Singer Instruments). In short: mating was performed on rich medium plates, and selection for diploid cells was performed on SD(MSG)-HIS-URA plates containing Geneticin (200 μg ml^−1) and Nourseothricin (200 μg ml^−1). Sporulation was induced by transferring cells to nitrogen starvation media plates for 7 days. Haploid cells containing the desired mutations were selected by transferring cells to SD-URA-HIS-LYS-ARG-LEU plates containing Geneticin and Nourseothricin (same concentrations as above), alongside the toxic amino acid derivatives Canavanine and Thialysine (Sigma-Aldrich) to select against remaining diploids and select for spores with an α mating type. A similar method was used to generate control, pex5Δ, and pex8Δ strains expressing GFP-Mdh3p (Supplementary Figure 4D), in which the query strain contained a peroxisomal marker (Pex3p-mCherry::NAT) and URA3::GFP-Mdh3p. This query strain was crossed with three strains from the mini peroxisomal deletion library ([Gabay-Maskit et al. 2020]): a control (no deletion), pex5Δ, and pex8Δ strain, all of which contain KAN (Geneticin) resistance.
The yeast collections were visualized using an automated microscopy setup as described previously ([Breker et al. 2013]). In short: cells were transferred from agar plates into 384-well polystyrene plates (Greiner) for growth in liquid media using the RoToR arrayer robot. Liquid cultures were grown in a LiCONiC incubator, overnight at 30 °C in SD-URA-HIS medium. A JANUS liquid handler (PerkinElmer) connected to the incubator was used to dilute the strains to an OD600 of ∼0.2 into plates containing SD medium (6.7 g l^−1 yeast nitrogen base and 2% glucose) supplemented with complete amino acids. Plates were incubated at 30 °C for 4 h. The cultures in the plates were then transferred by the liquid handler into glass-bottom 384-well microscope plates (Matrical Bioscience) coated with Concanavalin A (Sigma-Aldrich). After 20 min, cells were washed three times with SD-Riboflavin complete medium to remove non-adherent cells and to obtain a cell monolayer. The plates were then transferred to the ScanR automated inverted fluorescent microscope system (Olympus) using a robotic swap arm (Hamilton). Images of cells in the 384-well plates were recorded in the same liquid as the washing step at 24 °C using a 60× air lens (NA 0.9) and with an ORCA-ER charge-coupled device camera (Hamamatsu). Images were acquired in two channels: GFP (excitation filter 490/20 nm, emission filter 535/50 nm) and mCherry (excitation filter 572/35 nm, emission filter 632/60 nm). All images were taken at a single focal plane. The same protocol was used to visualize fluorescence signals in GFP-Mdh3p-expressing control, pex5Δ, and pex8Δ strains (Supplementary Figure 4D).

yeast peroxisomes = details: under both glucose and oleate condition; ref Rosenthal et al. 2020; cited from earlier work
Excerpt: We classified PTS1-proteins into three different categories according to the observed import phenotypes. […] In contrast, peroxisomal NADP-dependent isocitrate dehydrogenase (Idp3p; Figure 4C) and malate synthase 1 (Mls1p; Figure 4D) belong to category 2 characterized by no peroxisomal import (Supplementary Fi ...

pex8Δ cells = details: ref Rehling et al. 2000; cited from earlier work
Excerpt: Among the proteins with reduced peroxisomal import in Pex5p^2D cells (category 1) is Pex8p, an essential component of the import machinery for peroxisomal matrix proteins and required for the biogenesis of functional peroxisomes ([Agne et al. 2003]; [Rehling et al. 2000]), which may raise the question if the reduced import of most PTS1 proteins in Pex5p^2D cells is a consequence of decreased peroxisomal Pex8p levels.

[1] = target: T1, Pex5p-S507/523D, recombinant His6-tagged phospho-mimicking mutant (S. cerevisiae, UniProt P35056 1-612, S507D | S523D); assay: fluorescence polarisation; fluorescence anisotropy; 10 nM FITC-labelled peptide, serial dilutions of Pex5p variant 1.5 nM to 6.6 µM; 50 mM HEPES pH 7.5, 150 mM NaCl; one-site binding-saturation fit; details: both partners purified
T1 construct: Pex5p, PTS1 receptor of Saccharomyces cerevisiae, UniProtKB P35056, full length, with S507D and S523D; No cleavage of the His tag is described; the native MS mass of the monomer is printed as 71.515 kDa; also called Pex5p^2D; Pex5p-S507D/523D; source: E. coli BL21 RIL (DE3), purified (Ni-NTA, MonoQ anion exchange, SEC)
T1 sequence (looked up): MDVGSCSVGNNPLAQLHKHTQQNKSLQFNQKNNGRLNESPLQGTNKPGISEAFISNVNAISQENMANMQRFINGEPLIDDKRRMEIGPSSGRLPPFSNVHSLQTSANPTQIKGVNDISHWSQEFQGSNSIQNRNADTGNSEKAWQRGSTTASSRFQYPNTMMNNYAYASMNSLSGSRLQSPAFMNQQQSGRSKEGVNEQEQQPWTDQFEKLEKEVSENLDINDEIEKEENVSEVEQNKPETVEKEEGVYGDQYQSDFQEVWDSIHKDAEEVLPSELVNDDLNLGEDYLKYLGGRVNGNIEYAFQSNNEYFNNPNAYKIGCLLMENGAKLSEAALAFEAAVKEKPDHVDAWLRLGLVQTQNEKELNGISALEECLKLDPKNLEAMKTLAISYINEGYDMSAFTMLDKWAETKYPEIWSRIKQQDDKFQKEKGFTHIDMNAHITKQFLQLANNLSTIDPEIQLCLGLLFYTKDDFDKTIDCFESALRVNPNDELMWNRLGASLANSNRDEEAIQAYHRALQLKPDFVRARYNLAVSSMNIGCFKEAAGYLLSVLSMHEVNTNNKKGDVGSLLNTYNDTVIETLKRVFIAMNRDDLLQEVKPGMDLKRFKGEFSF

[2] = target: T2, Pex5p wildtype, recombinant His6-tagged (HisPex5p) (S. cerevisiae, UniProt P35056 1-612); assay: as above; details: both partners purified
T2 construct: Pex5p, PTS1 receptor of Saccharomyces cerevisiae, UniProtKB P35056, full length; No cleavage of the His tag is described; the native MS mass of the monomer is printed as 71.459 kDa; also called Pex5p^WT; source: E. coli BL21 RIL (DE3), purified (Ni-NTA, MonoQ anion exchange, SEC)
T2 sequence (looked up): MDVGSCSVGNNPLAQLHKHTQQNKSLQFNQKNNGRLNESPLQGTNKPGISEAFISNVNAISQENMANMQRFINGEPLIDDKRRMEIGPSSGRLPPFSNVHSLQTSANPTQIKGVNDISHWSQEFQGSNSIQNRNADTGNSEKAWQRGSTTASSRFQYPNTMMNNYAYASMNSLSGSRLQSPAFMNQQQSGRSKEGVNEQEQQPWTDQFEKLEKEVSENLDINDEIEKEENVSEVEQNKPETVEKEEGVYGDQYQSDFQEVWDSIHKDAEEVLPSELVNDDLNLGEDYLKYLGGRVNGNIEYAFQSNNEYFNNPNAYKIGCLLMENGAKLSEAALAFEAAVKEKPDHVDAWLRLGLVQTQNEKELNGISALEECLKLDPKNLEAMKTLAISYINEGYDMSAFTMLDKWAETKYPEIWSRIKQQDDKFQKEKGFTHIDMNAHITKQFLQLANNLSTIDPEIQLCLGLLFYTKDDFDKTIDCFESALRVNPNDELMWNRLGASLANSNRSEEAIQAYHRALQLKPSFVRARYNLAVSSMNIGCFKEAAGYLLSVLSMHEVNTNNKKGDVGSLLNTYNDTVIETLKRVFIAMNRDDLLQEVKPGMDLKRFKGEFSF

Lys1p: saccharopine dehydrogenase ({FITC}-YARVKRSSRL)
import phenotype category (Pex5p^2D cells): category 3 | targeting priority to peroxisomes (yeast peroxisomes): high targeting priority

Pcs60p: peroxisomal oxalyl-CoA synthetase, PTS1-protein
subcellular distribution (pex8Δ cells): mislocalization | import phenotype category (Pex5p^2D cells): category 1

Cat2p: carnitine acetyl-CoA transferase ({FITC}-YNENKRKAKL)
import phenotype category (Pex5p^2D cells): category 3 | targeting priority to peroxisomes (yeast peroxisomes): high targeting priority

B1: Cat2p nonapeptide, FITC-YNENKRKAKL (peptide)
peptide: {FITC}-YNENKRKAKL
notes: tyrosine added to the peptide amino-terminus for concentration measurements; the nine carboxy-terminal residues of Cat2p (carnitine acetyl-CoA transferase), S. cerevisiae; An extra N-terminal tyrosine stands before the natural stretch; also called Cat2p peptide; source: synthetic peptide (GenScript)
Kd [1]: 896 nM | Kd [2]: 116 nM

B2: Lys1p nonapeptide, FITC-YARVKRSSRL (peptide)
peptide: {FITC}-YARVKRSSRL
notes: tyrosine added to the peptide amino-terminus for concentration measurements; the nine carboxy-terminal residues of Lys1p (saccharopine dehydrogenase), S. cerevisiae; An extra N-terminal tyrosine stands before the natural stretch; also called Lys1p peptide; source: synthetic peptide (GenScript)
Kd [1]: 3690 nM | Kd [2]: 88.8 nM

B3: Pcs60p nonapeptide, FITC-YKSSRNKSKL (peptide)
peptide: {FITC}-YKSSRNKSKL
notes: tyrosine added to the peptide amino-terminus for concentration measurements; the nine carboxy-terminal residues of Pcs60p, S. cerevisiae; An extra N-terminal tyrosine stands before the natural stretch; also called Pcs60p peptide; source: synthetic peptide (GenScript)
Kd [2]: 643 nM

B4: Mdh3p: peroxisomal malate dehydrogenase (protein, UniProt P32419 2-343, looked up)
Malate dehydrogenase, …: VKVAILGASGGVGQPLSLLLKLSPYVSELALYDIRAAEGIGKDLSHINTNSSCVGYDKDSIENTLSNAQVVLIPAGVPRKPGLTRDDLFKMNAGIVKSLVTAVGKFAPNARILVISNPVNSLVPIAVETLKKMGKFKPGNVMGVTNLDLVRAETFLVDYLMLKNPKIGQEQDKTTMHRKVTVIGGHSGETIIPIITDKSLVFQLDKQYEHFIHRVQFGGDEIVKAKQGAGSATLSMAFAGAKFAEEVLRSFHNEKPETESLSAFVYLPGLKNGKKAQQLVGDNSIEYFSLPIVLRNGSVVSIDTSVLEKLSPREEQLVNTAVKELRKNIEKGKSFILDSSKL
import phenotype category (Pex5p^2D cells): category 3 | targeting priority to peroxisomes (yeast peroxisomes): high targeting priority

B5: Cta1p: protein mislocalized to the cytosol in pex8Δ cells in a previous study (protein, UniProt P15202 2-515, looked up)
Peroxisomal catalase A: SKLGQEKNEVNYSDVREDRVVTNSTGNPINEPFVTQRIGEHGPLLLQDYNLIDSLAHFNRENIPQRNPHAHGSGAFGYFEVTDDITDICGSAMFSKIGKRTKCLTRFSTVGGDKGSADTVRDPRGFATKFYTEEGNLDWVYNNTPVFFIRDPSKFPHFIHTQKRNPQTNLRDADMFWDFLTTPENQVAIHQVMILFSDRGTPANYRSMHGYSGHTYKWSNKNGDWHYVQVHIKTDQGIKNLTIEEATKIAGSNPDYCQQDLFEAIQNGNYPSWTVYIQTMTERDAKKLPFSVFDLTKVWPQGQFPLRRVGKIVLNENPLNFFAQVEQAAFAPSTTVPYQEASADPVLQARLFSYADAHRYRLGPNFHQIPVNCPYASKFFNPAIRDGPMNVNGNFGSEPTYLANDKSYTYIQQDRPIQQHQEVWNGPAIPYHWATSPGDVDFVQARNLYRVLGKQPGQQKNLAYNIGIHVEGACPQIQQRVYDMFARVDKGLSEAIKKVAEAKHASELSSNSKF
subcellular distribution (pex8Δ cells): mislocalization

B6: Fox3p: 3-ketoacyl-CoA thiolase, PTS2 import pathway (protein, UniProt P27796 16-417, looked up)
3-ketoacyl-CoA thiolase, …: AMGKGESKRKNSLLEKRPEDVVIVAANRSAIGKGFKGAFKDVNTDYLLYNFLNEFIGRFPEPLRADLNLIEEVACGNVLNVGAGATEHRAACLASGIPYSTPFVALNRQCSSGLTAVNDIANKIKVGQIDIGLALGVESMTNNYKNVNPLGMISSEELQKNREAKKCLIPMGITNENVAANFKISRKDQDEFAANSYQKAYKAKNEGLFEDEILPIKLPDGSICQSDEGPRPNVTAESLSSIRPAFIKDRGTTTAGNASQVSDGVAGVLLARRSVANQLNLPVLGRYIDFQTVGVPPEIMGVGPAYAIPKVLEATGLQVQDIDIFEINEAFAAQALYCIHKLGIDLNKVNPRGGAIALGHPLGCTGARQVATILRELKKDQIGVVSMCIGTGMGAAAIFIKE
subcellular distribution (pex8Δ cells): mislocalization
